From PMC10092650
Read-outs that look alike come from different tables or passages of the source. Each block holds one substance with its values, some of them ahead of it.

Legend:
[1] = molecular target: X-rhodamine-labeled dynamic microtubules nucleated from GMPCPP-stabilized Cy5 MT seeds (UniProt Q6B856); assay: dynamic MT seed assay
[2] = molecular target: doubly stabilized microtubules (GMPCPP and paclitaxel) (UniProt Q6B856); assay: co-sedimentation
[3] = molecular target: GMPCPP-stabilized HyLite 647/biotin-labeled microtubules (bovine) (UniProt Q6B856); assay: single-molecule TIRF microscopy
[4] = molecular target: GMPCPP-stabilized HyLite 647/biotin-labeled microtubules (bovine) (UniProt Q6B856); assay: single-molecule TIRF microscopy; remark: listed apart in the source
[5] = molecular target: doubly stabilized microtubules (GMPCPP and paclitaxel) (UniProt Q6B856); assay: co-sedimentation; remark: listed apart in the source

percent of two-sided MTs with GFP-Kif18B binding events, with importin α/β [1]: 73%
percent of two-sided MTs with bound GFP-Kif18B [1]: 46%
percent pelleted with MTs [2]: 79%
dwell time at MT plus ends [3]: 5.56 s
mean dwell time on the MT lattice [3]: 1.77 s
dwell time at MT plus ends [4]: 5.39 s
mean dwell time on the MT lattice [4]: 2.3 s
percent pelleted with MTs [5]: > 90%
Substance: GFP-Kif18B (full-length human Kif18B N-terminally tagged with EGFP) (from UniProt Q86Y91-6 1-833) (natural protein)

fold increase in the Kd for MT binding relative to YPet-Kif18B(605-828) [5]: 2 fold
Substance: YPet-Kif18B(605-828)-NLS1/2 (from UniProt Q86Y91-6 605-828) (domain or fragment)

fold increase in the Kd for MTs with importin α/β against without [5]: 9 fold
Substance: YPet-Kif18B(605-828)-His6 (from UniProt Q86Y91-6 605-828) (domain or fragment)
